Measured values: PMC5575521, “Liver microsomal lipid enhances the activity and redox coupling of colocalized cytochrome P450 reductase‐cytochrome P450 3A4 in nanodiscs” (The Febs Journal, 2017)

Columns and labels:
Settings in all cases: both partners purified
[1] = target: T1, cytochrome P450 3A4 (CYP3A4), human, C-terminally His-tagged, expressed from pB84 (human, UniProt P08684 1-503); assay: absorbance spectroscopy of the co-purified nanodiscs (fit of a convolution spectrum); CPR-CYP3A4-nanodiscs of POPC after Ni-affinity and gel filtration; spectra of singly loaded nanodiscs as basis spectra
T1 construct: human cytochrome P450 3A4 with its own N-terminal membrane anchor domain; expressed with an OmpA leader that is cleaved off during membrane targeting; source: E. coli K12 JM109, solubilised with CHAPS, purified (Ni-NTA agarose); not shown: His-tag, C-terminal, kept
T1 sequence (P08684 whole entry, the tested form may be a part): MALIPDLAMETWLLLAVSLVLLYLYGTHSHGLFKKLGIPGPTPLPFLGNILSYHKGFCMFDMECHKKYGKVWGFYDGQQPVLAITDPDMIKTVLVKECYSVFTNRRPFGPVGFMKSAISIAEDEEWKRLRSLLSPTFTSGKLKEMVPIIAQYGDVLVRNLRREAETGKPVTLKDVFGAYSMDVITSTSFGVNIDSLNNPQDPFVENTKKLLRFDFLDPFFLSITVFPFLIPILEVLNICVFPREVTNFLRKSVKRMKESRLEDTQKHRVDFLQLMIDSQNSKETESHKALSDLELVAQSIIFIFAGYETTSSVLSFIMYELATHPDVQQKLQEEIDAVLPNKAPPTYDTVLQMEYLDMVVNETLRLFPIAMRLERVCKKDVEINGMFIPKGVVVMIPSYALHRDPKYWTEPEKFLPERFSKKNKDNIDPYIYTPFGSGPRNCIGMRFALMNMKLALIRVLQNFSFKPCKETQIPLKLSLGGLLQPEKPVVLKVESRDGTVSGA

[2] = target: T1, cytochrome P450 3A4 (CYP3A4), human, …; assay: absorbance spectroscopy of the co-purified nanodiscs (fit of a convolution spectrum); CPR-CYP3A4-nanodiscs of bovine liver microsomal lipid after Ni-affinity and gel filtration; spectra of singly loaded nanodiscs as basis spectra
[3] = target: T1, cytochrome P450 3A4 (CYP3A4), human, …; assay: absorbance spectroscopy of the co-purified nanodiscs (fit of a convolution spectrum); CPR-CYP3A4-nanodiscs of mixed lipid (ER mimic) after Ni-affinity and gel filtration; spectra of singly loaded nanodiscs as basis spectra

stoichiometry N [1]: 0.8 CPR : CYP (molar ratio)
stoichiometry N [2]: 1 CPR : CYP (molar ratio)
stoichiometry N [3]: 1.1 CPR : CYP (molar ratio)
B1: NADPH-dependent cytochrome P450 oxidoreductase (CPR), full-length human, expressed from pPORh1 (enzyme)
chain: GIPGSMGDSHVDTSSTVSEAVAEEVSLFSMTDMILFSLIVGLLTYWFLFRKKKEEVPEFTKIQTLTSSVRESSFVEKMKKTGRNIIVFYGSQTGTAEEFANRLSKDAHRYGMRGMSADPEEYDLADLSSLPEIDNALVVFCMATYGEGDPTDNAQDFYDWLQETDVDLSGVKFAVFGLGNKTYEHFNAMGKYVDKRLEQLGAQRIFELGLGDDDGNLEEDFITWREQFWPAVCEHFGVEATGEESSIRQYELVVHTDIDAAKVYMGEMGRLKSYENQKPPFDAKNPFLAAVTTNRKLNQGTERHLMHLELDISDSKIRYESGDHVAVYPANDSALVNQLGKILGADLDVVMSLNNLDEESNKKHPFPCPTSYRTALTYYLDITNPPRTNVLYELAQYASEPSEQELLRKMASSSGEGKELYLSWVVEARRHILAILQDCPSLRPPIDHLCELLPRLQARYYSIASSSKVHPNSVHICAVVVEYETKAGRINKGVATNWLRAKEPAGENGGRALVPMFVRKSQFRLPFKATTPVIMVGPGTGVAPFIGFIQERAWLRQQGKEVGETLLYYGCRRSDEDYLYREELAQFHRDGALTQLNVAFSREQSHKVYVQHLLKQDREHLWKLIEGGAHIYVCGDARNMARDVQNTFYDIVAELGAMEHAQAVDYIKKLMTKGRYSLDVWS
notes: printed in three-letter code as Gly-Iso-Pro-Gly-Ser; human NADPH-dependent cytochrome P450 reductase (CPR), full length with its N-terminal membrane anchor domain; Expressed with an N-terminal OmpA leader for periplasmic membrane targeting; also called cytochrome P450 reductase; full-length CPR; source: E. coli C41(DE3), solubilised from membranes with Triton X-100, purified (2',5'-ADP Sepharose …)
